Experiment [1] addresses PD-L1 on CHO-PD-L1 cells (human) (UniProt Q9NZQ7). Description: flow cytometry cell binding; CHO-PD-L1 cells.
The target in experiment [2] is CD47 on Jurkat cells (UniProt Q08722). Description: flow cytometry cell binding; Jurkat cells.

Sequence of PD-L1 on CHO-PD-L1 cells (human) (Q9NZQ7 19-290): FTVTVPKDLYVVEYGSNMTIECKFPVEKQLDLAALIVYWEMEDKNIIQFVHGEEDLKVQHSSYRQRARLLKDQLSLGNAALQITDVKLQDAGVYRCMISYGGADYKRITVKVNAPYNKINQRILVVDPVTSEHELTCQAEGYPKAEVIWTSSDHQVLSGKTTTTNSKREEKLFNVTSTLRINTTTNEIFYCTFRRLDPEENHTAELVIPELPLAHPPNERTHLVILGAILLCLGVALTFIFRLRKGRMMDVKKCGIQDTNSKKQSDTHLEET

In experiment [1], Atezolizumab gave an EC50 of 27 pM.

As to IMM2505, the EC50 in experiment [2] was determined as 913 pM; in experiment [1], 47.1 pM.

The values above are taken from US20230083670A1.
